Assay results taken from PMC8835842, “YdfD, a Lysis Protein of the Qin Prophage, Is a Specific Inhibitor of the IspG-Catalyzed Step in the MEP Pathway of Escherichia coli” (International Journal of Molecular Sciences, 2022).

B1: YdfD (MBP tag cleaved) (natural protein, E. coli BL21(DE3), UniProt P29010 1-63, looked up)
chain: MNSAFVLVLTVFLVSGEPVDIAVSVHRTMQECMTAATEQKIPGNCYPVDKVIHQDNIEIPAGL
notes: YdfD, lysis protein of the Qin cryptic prophage, 63 amino acids; ydfD amplified from the E. coli BL21(DE3) genome; No truncation is told for this construct; source: E. coli BL21(DE3), purified as MBP-YdfD (amylose resin), MBP cleaved by PreScission protease; not shown: MBP, N-terminal, cleaved
B2: IspG-His (enzyme, E. coli BL21(DE3), UniProt P62620 1-372, looked up)
chain: MHNQAPIQRRKSTRIYVGNVPIGDGAPIAVQSMTNTRTTDVEATVNQIKALERVGADIVRVSVPTMDAAEAFKLIKQQVNVPLVADIHFDYRIALKVAEYGVDCLRINPGNIGNEERIRMVVDCARDKNIPIRIGVNAGSLEKDLQEKYGEPTPQALLESAMRHVDHLDRLNFDQFKVSVKASDVFLAVESYRLLAKQIDQPLHLGITEAGGARSGAVKSAIGLGLLLSEGIGDTLRVSLAADPVEEIKVGFDILKSLRIRSRGINFIACPTCSRQEFDVIGTVNALEQRLEDIITPMDVSIIGCVVNGPGEALVSTLGVTGGNKKSGLYEDGVRKDRLDNNDMIDQLEARIRAKASQLDEARRIDVQQVEK
notes: ispG amplified from the E. coli BL21(DE3) genome; also called His-tagged ispG; GcpE; source: E. coli BL21(DE3); coexpressed with YdfD constructs, in lysate; and purified (Ni-NTA, Superdex 200)

Experiments:
IspG-His = target: B2; test: ITC; IspG (1.1 mM) injected into YdfD in the cell, 2 μL injections at 120 s spacing, 25 °C, 20 mM Tris, 150 mM NaCl, pH 8.0; one-site binding fit; conditions: both partners purified
YdfD (MBP tag cleaved) = target: B1; test: as above; conditions: both partners purified

Binder	Kd (IspG-His)	dH (YdfD (MBP tag cleaved))	stoichiometry N (YdfD (MBP tag cleaved))
B1	18.4 µM		
B2		1.57 kcal/mol	0.63
